We go through 20 sequences from the DeepSol protein solubility set.

This data set is described as follows: soluble on expression in E. coli; label from the status in PepcDB or PDB records.
Turning to “MPDYDLIAILGPTASGKTPFAAALAAELNTEIISADSRQIYRGMDLGTGKDLEDYTINGRQIPYHLIDIADPGYKYNVFEYQRDFLTAYETIKQKGCLPVLCGGTGLYLESVLKGYRLIPVPENQELRVRLAEKSLEELTAILSSYKTLHNSTDVDTVKRAIRAIEIEEYYAKTPIEEREFPQLNSLIIGVDIDRELRREKITRRLKQRLDDGMVEEVRRLLAEGIQPDDLIYYGLEYKYLTLYAIGKMTYDEMFTGLETAIHQFAKRQMTWFRGMERRGFTIHWVDASLPMEEKINFVKQKLKEFLEHHHHHH”, the “soluble on expression in E. coli” value was “soluble”.

For the sequence “MPEAVVLINSASDANSIEQTALPVPMALVHRTRVQDAFPVSWIPKGGDRFSVTAVLPHDHPFFAPVHGDRHDPLLIAETLRQAAMLVFHAGYGVPVGYHFLMATLDYTCHLDHLGVSGEVAELEVEVACSQLKFRGGQPVQGQVDWAVRRAGRLAATGTATTRFTSPQVYRRMRGDFATPTASVPGTAPVPAARAGRTRDEDVVLSASSQQDTWRLRVDTSHPTLFQRPNDHVPGMLLLEAARQAACLVTGPAPFVPSIGGTRFVRYAEFDSPCWIQATVRPGPAAGLTTVRVTGHQDGSLVFLTTLSGPAFSGAAALEHHHHHH”, the “soluble on expression in E. coli” value is given as “not soluble”.

As to “MPEAWAPVRPETPPAPELLYWNAELADELGLDAGQTDKGELARLFSGADIPEGAQPIAQAYAGHQFGGLSPSLGDGRALLLGEVTDRNGQRRDIALKGSGQTPFSRRGDGKAAVGPMLRELIVGEAMQALGIPTTRALAVTTTGEPVYRERPLPGAVLTRVAASHLRVGTFQYFAIRGETAMLNKLADYTIARHYPQLAGRDGRHLALLAAVAERQAALIARWMHAGFIHGVMNTDNMALSGETIDYGPCAFMDAHYPGTVFSSIDHQGRYAYGNQPAIAQWNLARFAETLLPLISPDDPAAAVPAATEIVEGFEDLYQRRWLEQARRKLGLEGERDDDQALADDWLMLLAAHGVDHTLAWRYLADEAEGKGERLAALFPSPDALTPWLKQWHARHVPRTRRPPDIAAAMRRESPLYIPRNHLVEEALDAASERGDMGPTLKLLEALHQPFAERDGLDRYAQPAAAELAEGYRTFCGTLEHHHHHH”, the “soluble on expression in E. coli” value is “not soluble”.

Take “MPEKYTTPYPARRIHSDGRAEDTEVLLAKECPVKLFLDGKQFTTLFASPLELKELAVGHLITEGILSFKEIAGVEVEGNEVHILTLKGKHPIQDESSRPAGGETKKQIFVNSDAVFDPEALFEGIAYLESDTYKLTRGTHLAALIDKKGKLAVQIVDVGRHNAVDKVVGAAFLRMIDLSQHYMLSTGRQPAYMVTKAARAGIPLVATKAMPFDSGVEAAKKANLCLVGQLRKESMLVFTNEWRVRIAAALEHHHHHH”: the “soluble on expression in E. coli” value is reported as “not soluble”.

Consider “MPELPEVETSRRGIEPHLVGATILHAVVRNGRLRWPVSEEIYRLSDQPVLSVQRRAKYLLLELPEGWIIIHLGMSGSLRILPEELPPEKHDHVDLVMSNGKVLRYTDPRRFGAWLWTKELEGHNVLTHLGPEPLSDDFNGEYLHQKCAKKKTAIKPWLMDNKLVVGVGNIYASESLFAAGIHPDRLASSLSLAECELLARVIKAVLLRSIEQGGTTLKDFLQSDGKPGYFAQELQVYGRKGEPCRVCGTPIVATKHAQRATFYCRQCQK”, for which the “soluble on expression in E. coli” value is “not soluble”.

Regarding “MPEQLNTRVEDCFQLAESFFKRPFKRPVVSLKLRGQKAGVAHLHENLLRFNPQLYRENTEDFLKQTVAHEVAHLIAHQLFGERIQPHGEEWQLIMRGVYELPPNRCHTYDVKRRSVTRYIYRCPCAESDFPFSAQRHKLVAQGRRYLCRRCRQTLVYSGETRVELEHHHHHH”, the “soluble on expression in E. coli” value is reported as “not soluble”.

As for “MPERFVEMLREENGKIIVRIPGETARYANLEGKEGEYLLVDLVKVFDPHLKLPTHSIGEKAICRTVTFRDNRGYEHLGLEIPQELVNDYGMKAGEYLEAVIEHAILRDKIAAVYPNLEILNQYPYWWRKISQ”, the “soluble on expression in E. coli” value was “not soluble”.

On to “MPGAMESPNESEDVSKTFFKLCDGLRLGELVTTEHFRLSDVMSAIELGEPKMDVGVGSKHIKTLKEAISGGLYADDYPFQLAIMDSTLAMVVAWLEGSALGSTVWTNVLLSNVTFVKHPVFHPFASGVNLFIRNAHALINSVGNLEELPEDFNPQMLFSHQRWAPRRVVVQLMREQVTLLGTTGRKWRESAFSKQAYDICCAVASRLEMFIMLLEIIGLLVAPEIEDPNFDHKVHLGDFYVHEKEYEGAEENSDEKSEESTSDPTPSSEAKSETTEKKEQKSNDEATDETDQNDDENVGDDEDEDDMKQFKPNFGFASILAERLCKVTKAYAETVKLGRRAPDNIDGDGDYLWLGAYEPKTCIRMIPACFPRKIKVPSRQEAADWWVKCAERIYHLCIVTPKTSKDLNYLFYFARTFGQNACVFTRSLLQICMFPVDNHLCGDENRSIADAVEYSLSNCFCPQILDRVSPVYKDQTAQSLYVLFLNHMSKLAITVYGSFGCNLSRQRDRLEMAIEDLGQIHSYAGRLEERTDEVLLSGKMVTAKEQNYSYHSVATFVFHNLLAIINHYFELGFRMDLYVPYEFPYIYWFIGSVQAHWMRTTLERSQEIQLNVYQANPLRETKNKKLWEERCKLGEELKRRVAAHQFSVLNQIAISMISDGVVRLTVVLIRKGIIKMPKGGDDAEKLRFERRFEPFDSLGPPVRVDYERFKSDSGIDQMYEDKIETLIDQAQKSFNEAREHLEKIDNSVEQNREMMQLIHVAKSNIIACRVLKLDLTDRNVVWSFSEEIPMFPCLKISKK”, for which the “soluble on expression in E. coli” value is “not soluble”.

As to “MPGQPFGVYLHVPFCLTRCGYCDFNTYTPAQLGGVSPDRWLLALRAELELAAAKLDAPTVHTVYVGGGTPSLLGGERLATLLDMVRDHFVLAPDAEVSTEANPESTWPEFFATIRAAGYTRVSLGMQSVAPRVLATLDRVHSPGRAAAAATEAIAEGFTHVNLDLIYGTPGESDDDLVRSVDAAVQAGVDHVSAYALVVEHGTALARRVRRGELAAPDDDVLAHRYELVDARLSAAGFAWYEVSNWCRPGGECRHNLGYWDGGQWWGAGPGAHGYIGVTRWWNVKHPNTYAEILAGATLPVAGFEQLGADALHTEDVLLKVRLRQGLPLARLGAAERERAEAVLADGLLDYHGDRLVLTGRGRLLADAVVRTLLG”, the “soluble on expression in E. coli” value was “not soluble”.

For “MPHTSSDVADFKEVRHIRGDINLKPFIAIWEVTRACGLVCQHCRADAQHEPHPEQLTTEQGKQLLSDLASYERPKPLVVLTGGDPFERQDLEELVDYGTSLGLNVSLSPSVTPRLTPERIHRLYELGGKAMSMSLDGATAETHDAFRGFSGTFDTTVKRAADILQAGFRLQINSTLTKSNIREAPALLKTVMGMGAKMWYVFFLVPTGRGAALNALNPQEREDVLHWLADVSDRIAIKTTEAPQYRRVVIQQRLRKEGQLDKYQGGELYRYLTQKTTELLGAHPVQPRRPRPPMAVNSGSGFVFIDHIGDVYPSGFLPIHCGNVKQASIKTIYSQSPTFQALRDPNHWHGKCSVCEFHDVCGGSRSTAYALTGDVRASDPTCVYMPQPWLDAGHSGVED”, the “soluble on expression in E. coli” value was “not soluble”.

Turning to “MPIPNNPGAGENAFDPVFVNDDDGYDLDSFMIPAHYKKYLTKVLVPNGVIKNRIEKLAYDIKKVYNNEEFHILCLLKGSRGFFTALLKHLSRIHNYSAVETSKPLFGEHYVRVKSYCNDQSTGTLEIVSEDLSCLKGKHVLIVEDIIDTGKTLVKFCEYLKKFEIKTVAIACLFIKRTPLWNGFKADFVGFSIPDHFVVGYSLDYNEIFRDLDHCCLVNDEGKKKYKATSL”, the “soluble on expression in E. coli” value is “soluble”.

Take “MPIQRREFIAAIGTGALATTAGCAQSGEGSGQTEAETEAESGGGGQPGVAGETLTLTTTTSTYDTGLLDEIHPDFEDMYGVSVDAVAQGTGAALESARNGDSDIVMVHARGLEDDFMRNGYGINRRDLMFNDFVIVGPEDDPAGIQGMGSATEALTTIAESESQFVSRGDNSGTHTKELNLWEAAGTEPGGNWYQETGTGMGEALNIANQQGAYTLSDRGTYISQRSEIDLVILVQGPIEDGPEILANPYGIMAVNPGVHDNANYDLAMAYIGWITSPGTQDAISNYQVNGEQLFFPEAVSEDPNFQQYVPEGWSSDAGE”: the “soluble on expression in E. coli” value is on record as “not soluble”.

On to “MPIVYYDGNCIYCYNYVIWLIQHDLPRNYQFATLKGEVGQQFFKQHPEAANKNSVILQKGDCIYFESQAIIKLITALPNRTKLLGVGLWLVPKPVRNFGYRMFANNRNRMWKTTWHQPNDYEKSFFLDDNAKVKLTDLEHHHHHH”, for which the “soluble on expression in E. coli” value is “soluble”.

In the case of “MPIYEYACHACGLEKEHLQKMSDAPIANCPACGSSDYVKKVSAAGFQLKGTGWYVTDFRNKNTRSDSKPKEESGKEAADTDKAAATTTTDSTTATATTASTSTTAPTVSSVD”, the “soluble on expression in E. coli” value is reported as “not soluble”.

Turning to “MPKNTPIIRSLLDTDLYKFTMLQVVLHQFPAAHGEYEFRCRNHPDTPLTQLKQQLETQLDLLCELRFSQDELDYLRGLRFIKSDYVDYLELFHLQRRFISVSEEGEQLAIRIKGPMVQAMFFEIFVLAIVNELYFRPLDSKAVREEGRRRLEAKLAELERFQREEAPGQRFPLLIADFGTRRRFSRDWQAHVVERLNHALPQVFRGTSNVYLARKLGITPIGTMAHEFFQAFQALGVRLRDFQKAALESWVQEYRGDLGIALTDVVGMDAFLADFDLYFAKLFDGLRHDSGDPYIWGEKAIAHYRKLRIDPATKMLTFSDGLSVDSALQLQRHFSPHIQVSFGIGTHFTNDMGLEPLQIVLKLVSCNGQPVAKLSDSPGKTMCSDETFLAYLRQVFKVPALALEHHHHHH”, the “soluble on expression in E. coli” value is recorded as “soluble”.

Consider “MPKPVIAIVGRPNVGKSTIFNRIVGERVSIVEDIPGVTRDRIYSAGEWLNHEFNIIDTGGIDIGDEPFLTQIRQQAEVAIDEADVIIFMTNGRDGVTAADEEVAKILYRSNKPVVLAVNKVDNPEMRSDIYDFYALGFGEPFPISGTHGLGLGDLLDEAAQHFPKIEEDGYDEDTIRFSLIGRPNVGKSSLVNALLGQERVIVSNVAGTTRDAVDTPYSKDGKDYVIIDTAGMRKKGKVYESTEKYSVLRALRAIERSDVVLVVLDGEEGIIEQDKKIAGYAHDSGRAVVIVVNKWDAVKKDEKTMKAFEENIRAHFQFLEYAPIVFLSAKTRKRTQTLIPVIDEVNESHSIRIQTNVLNDVIMDAVAMNPTPTHNGSRLKIFYATQVAVKPPTFVVFVNDPELLHFSYERFLKNRLRESFGFVGTPIHIIARARD”, for which the “soluble on expression in E. coli” value is recorded as “soluble”.

Consider “MPKSEIRKLLQEIKKQVDNPGNSSTTEIKKMASEAGIDEQTAEEIYHLLTEFYQAVEEHGGIEKYMHSNISWLKIELELLSACYQIAILEDMKVLDISEMLSLNDLRIFPKTPSQLQNTYYKLKKELIQVEDIPKNKPGRKRKTQKNTKKEKTNIFGKVVPALEHHHHHH”, for which the “soluble on expression in E. coli” value is listed as “soluble”.

Take “MPKVKTNRVKYPEGWELIEPTLRELDAKMREAETDSHDGKRKCETLWPIFKVSHQRSRYVYDLYYRREEISKELYEFCLDQGYADRSLIAKWKKSGYERLCCLRCIQPRDHNYGTTCVCRVPKHLREEKVVECVHCGCQGCASGD”: the “soluble on expression in E. coli” value is “not soluble”.

On to “MPLAKDLLHPLPAEEKRKHKLKRLVQHPNSYFMDVKCPGCYRITTVFSHAQGVVVCAGCATILCQPTGGRAKLTEGCSFRRKPQLEHHHHHH”, for which the “soluble on expression in E. coli” value was “not soluble”.

As to “MPLDPQIKPILERIRALSIAASPQELRRQVEEQSRLLTAAVQEPIAETRDVHIPVSGGSIRARVYFPKKAAGLPAVLYYHGGGFVFGSIETHDHICRRLSRLSDSVVVSVDYRLAPEYKFPTAVEDAYAALKWVADRADELGVDPDRIAVAGDSAGGNLAAVVSILDRNSGEKLVKKQVLIYPVVNMTGVPTASLVEFGVAETTSLPIELMVWFGRQYLKRPEEAYDFKASPLLADLGGLPPALVVTAEYDPLRDEGELYAYKMKASGSRAVAVRFAGMVHGFVSFYPFVDAGREALDLAAASIRSGLQPS”, the “soluble on expression in E. coli” value is on record as “soluble”.
